Assays:
[1] = molecular target: NStr-M35_S, short M35 (aa 2 to 452) with N-terminal Twin-Strep tag and TEV site (murine cytomegalovirus (MCMV)); test: SEC-MALS; 100 μg protein on Superdex 200 Increase 10/300 in 50 mM Tris pH 7.4, 10% glycerol, 250 mM NaCl, 1 mM DTT
[2] = molecular target: T1, M35_S (murine cytomegalovirus (MCMV) strain …, UniProt D3XDM4 2-452); test: EMSA; 1 uM M35_S; settings: protein: recombinant; tags: N-terminal Twin-Strep tag removed by TEV (GS remnant likely); chain copies: 2; label: 5'-biotin on both strands; 5' overhang 1 nt each end, 56 bp
T1 sequence: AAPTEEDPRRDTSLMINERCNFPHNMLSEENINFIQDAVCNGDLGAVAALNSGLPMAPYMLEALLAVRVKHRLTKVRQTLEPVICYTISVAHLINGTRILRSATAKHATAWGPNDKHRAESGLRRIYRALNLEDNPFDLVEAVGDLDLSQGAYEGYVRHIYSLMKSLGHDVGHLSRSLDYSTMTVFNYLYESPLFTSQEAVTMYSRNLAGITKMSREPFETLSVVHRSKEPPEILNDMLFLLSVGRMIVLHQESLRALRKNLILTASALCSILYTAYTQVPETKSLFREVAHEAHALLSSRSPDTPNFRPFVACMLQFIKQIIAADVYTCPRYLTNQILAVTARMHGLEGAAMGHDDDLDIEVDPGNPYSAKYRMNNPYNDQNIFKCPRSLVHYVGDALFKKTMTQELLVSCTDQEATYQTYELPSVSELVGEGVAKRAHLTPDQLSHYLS

[3] = molecular target: T1, M35_S; test: EMSA; settings: protein: recombinant; tags: N-terminal Twin-Strep tag removed by TEV (GS remnant likely); chain copies: 2; label: 5'-biotin on both strands; 5' overhang 1 nt each end, 56 bp
[4] = molecular target: T1, M35_S; test: EMSA; Hill coefficient 2.775; settings: protein: recombinant; tags: N-terminal Twin-Strep tag removed by TEV (GS remnant likely); chain copies: 2; label: 5'-biotin on both strands; 5' overhang 1 nt each end, 56 bp
[5] = molecular target: T1, M35_S; test: EMSA; 0.1-10 uM M35_S; second complex at 10 uM; settings: protein: recombinant; tags: N-terminal Twin-Strep tag removed by TEV (GS remnant likely); chain copies: 2; label: 5'-biotin on both strands; 5' overhang 1 nt each end, 56 bp

Molecule: NStr-M35_S, short M35 (aa 2 to 452) with N-terminal Twin-Strep tag and TEV site (domain or fragment)
- stoichiometry N [1]: 2

B1: Bio-hIFNb 15-38 (dsDNA)
DNA 1: ATATAAGACGGAATAAACTGAAAGGGAGAAGTGAAAGTGACATGCTACGGAATGAAT
DNA 2: AATTCATTCCGTAGCATGTCACTTTCACTTCTCCCTTTCAGTTTATTCCGTCTTATA
- binding result [2]: binds

B2: Bio-hIFNb 1-38 (dsDNA)
DNA 1: TAAATGACATAGGAAAACTGAAAGGGAGAAGTGAAAGTGACATGCTACGGAATGAAT
DNA 2: AATTCATTCCGTAGCATGTCACTTTCACTTCTCCCTTTCAGTTTTCCTATGTCATTT
- binding result [2]: binds

B3: Bio-scrambled (ScrHIFNb) (dsDNA)
DNA 1: ATAAGAGAACTAAGCGGAATAAGTAAGAGATGATCGGATTAGTCGCTAAGAATGAGA
DNA 2: TTCTCATTCTTAGCGACTAATCCGATCATCTCTTACTTATTCCGCTTAGTTCTCTTA
- binding result [3]: no binding

B4: Bio-mIFNb (murine IFN-b enhancer) (dsDNA)
DNA 1: AAAATGACAGAGGAAAACTGAAAGGGAGAACTGAAAGTGGGAAATTCCTCTGAGGCA
DNA 2: CTGCCTCAGAGGAATTTCCCACTTTCAGTTCTCCCTTTCAGTTTTCCTCTGTCATTT
- Kd [4]: 2060 nM

B5: Bio-hIFNb (human IFN-b enhancer) (dsDNA)
DNA 1: TAAATGACATAGGAAAACTGAAAGGGAGAAGTGAAAGTGGGAAATTCCTCTGAATAG
DNA 2: ACTATTCAGAGGAATTTCCCACTTTCACTTCTCCCTTTCAGTTTTCCTATGTCATTT
- binding result [5]: binds

From PMC10308904, “The Cytomegalovirus M35 Protein Directly Binds to the Interferon-β Enhancer and Modulates Transcription of Ifnb1 and Other IRF3-Driven Genes”
